The experiment relates to Ovalbumin-specific OTII T cells. Nature of the experiment: Adoptive transfer of ovalbumin-specific OTII T cells, Foxp3 expression and total Treg (Example 5). It counts as in vivo, mice. The note with it: OTII T cells adoptively transferred prior to treatment. How it is done: However, expansion of antigen-specific Treg can be more desirable than expansion of total Treg. The ability of ImmTOR plus antigen combined with IL-2 mutein to induce and/or expand antigen-specific Treg was evaluated. Ovalbumin-specific OTII T cells were adoptively transferred into mice prior to treatment with ovalbumin and ImmTOR and/or IL-2 mutein.

B1: ovalbumin (protein, UniProt P01012 2-386, looked up)
Ovalbumin: GSIGAASMEFCFDVFKELKVHHANENIFYCPIAIMSALAMVYLGAKDSTRTQINKVVRFDKLPGFGDSIEAQCGTSVNVHSSLRDILNQITKPNDVYSFSLASRLYAEERYPILPEYLQCVKELYRGGLEPINFQTAADQARELINSWVESQTNGIIRNVLQPSSVDSQTAMVLVNAIVFKGLWEKAFKDEDTQAMPFRVTEQESKPVQMMYQIGLFRVASMASEKMKILELPFASGTMSMLVLLPDEVSGLEQLESIINFEKLTEWTSSNVMEERKIKVYLPRMKMEEKYNLTSVLMAMGITDVFSSSANLSGISSAESLKISQAVHAAHAEINEAGREVVGSAEAGVDAASVSEEFRADHPFLFCIKHIATNAVLFFGRCVSP
notes: model antigen administered to mice
Turning to B1, the “percentage of Foxp3+ OTII cells” value was about 6%.

These data come from patent US20230322884A1, “IMMUNOSUPPRESSANT IN COMBINATION WITH HIGH AFFINITY IL-2 RECEPTOR AGONISTS AND RELATED DOSING” (Selecta Biosciences, Inc., priority 2022, published 2023).
